Experimental data reported in PMC8464063, “The bacterial iron sensor IdeR recognizes its DNA targets by indirect readout”.

Key:
[1] = target: Saccharopolyspora erythraea IdeR P39G variant (Saccharopolyspora erythraea); test: crystal structure; IdeR (WT, Q43A or P39G) with 1 mM CoCl2 or Fe(NH4)2(SO4)2 and 150 uM 30-bp double-stranded DNA (consensus or C10S1); space group C2, two IdeR dimers and one DNA duplex in the asymmetric unit
[2] = target: Saccharopolyspora erythraea IdeR Q43A variant (Saccharopolyspora erythraea); test: as above
[3] = target: Saccharopolyspora erythraea iron-dependent regulator IdeR, wild type (Saccharopolyspora erythraea); test: crystal structure; Co2+-activated IdeR WT without DNA; 12 mg/ml protein with 1 mM CoCl2 and 0.3 mg/ml trypsin before crystallisation; 25% PEG 1500, 20°C; space group P1, one IdeR dimer in the asymmetric unit
[4] = target: Saccharopolyspora erythraea iron-dependent regulator IdeR, wild type (Saccharopolyspora erythraea); test: crystal structure; IdeR (WT, Q43A or P39G) with 1 mM CoCl2 or Fe(NH4)2(SO4)2 and 150 uM 30-bp double-stranded DNA (consensus or C10S1); space group C2, two IdeR dimers and one DNA duplex in the asymmetric unit
IdeR WT [5] = target: T1, IdeR WT (Saccharopolyspora erythraea DSM 40517, UniProt A0ABF7PL34 1-231); test: EMSA; 30 uM Co2+; up to 22.5 uM dimer; EMSA: 15 mM Tris-acetate pH 7.3, 4 mM K-acetate, 10% glycerol, 17 ng/ul poly(dI-dC), 30 nM DNA, 30 uM Co2+, IdeR 15 nM-2.25 uM dimer, 20 min room temperature; 4% native gel at 4 C; conditions: protein: recombinant, tags: N-terminal His6 removed by TEV, Gly-His remains before Met1, chain copies: 4, blunt
IdeR WT [6] = target: T1, IdeR WT; test: EMSA; 30 uM Co2+; EMSA: 15 mM Tris-acetate pH 7.3, 4 mM K-acetate, 10% glycerol, 17 ng/ul poly(dI-dC), 30 nM DNA, 30 uM Co2+, IdeR 15 nM-2.25 uM dimer, 20 min room temperature; 4% native gel at 4 C; conditions: protein: recombinant, tags: N-terminal His6 removed by TEV, Gly-His remains before Met1, chain copies: 4, blunt
IdeR P39G [7] = target: T2, IdeR P39G (Saccharopolyspora erythraea DSM 40517, UniProt A0ABF7PL34 1-231, P39G); test: X-ray crystallography; Co2+; two dimers per duplex; EMSA: 15 mM Tris-acetate pH 7.3, 4 mM K-acetate, 10% glycerol, 17 ng/ul poly(dI-dC), 30 nM DNA, 30 uM Co2+, IdeR 15 nM-2.25 uM dimer, 20 min room temperature; 4% native gel at 4 C; conditions: protein: recombinant; tags: N-terminal His6 removed by TEV; Gly-His remains before Met1; chain copies: 4; blunt
IdeR WT [8] = target: T1, IdeR WT; test: X-ray crystallography; Fe2+; two dimers per duplex; EMSA: 15 mM Tris-acetate pH 7.3, 4 mM K-acetate, 10% glycerol, 17 ng/ul poly(dI-dC), 30 nM DNA, 30 uM Co2+, IdeR 15 nM-2.25 uM dimer, 20 min room temperature; 4% native gel at 4 C; conditions: protein: recombinant; tags: N-terminal His6 removed by TEV; Gly-His remains before Met1; chain copies: 4; blunt
IdeR WT [9] = target: T1, IdeR WT; test: EMSA; 30 uM Co2+; one dimer bound; EMSA: 15 mM Tris-acetate pH 7.3, 4 mM K-acetate, 10% glycerol, 17 ng/ul poly(dI-dC), 30 nM DNA, 30 uM Co2+, IdeR 15 nM-2.25 uM dimer, 20 min room temperature; 4% native gel at 4 C; conditions: protein: recombinant; tags: N-terminal His6 removed by TEV; Gly-His remains before Met1; chain copies: 4; label: 5' Cy5 on strand 1; blunt
IdeR Q43A = IdeR Q43A (Saccharopolyspora erythraea DSM 40517, UniProt A0ABF7PL34 1-231, Q43A); test: EMSA; 30 uM Co2+; EMSA: 15 mM Tris-acetate pH 7.3, 4 mM K-acetate, 10% glycerol, 17 ng/ul poly(dI-dC), 30 nM DNA, 30 uM Co2+, IdeR 15 nM-2.25 uM dimer, 20 min room temperature; 4% native gel at 4 C; conditions: protein: recombinant; tags: N-terminal His6 removed by TEV; Gly-His remains before Met1; chain copies: 4; label: 5' Cy5 or 5' FAM on strand 1; blunt
IdeR P39G [10] = target: T2, IdeR P39G; test: as above; conditions: protein: recombinant; tags: N-terminal His6 removed by TEV; Gly-His remains before Met1; chain copies: 4; label: 5' Cy5 or 5' FAM on strand 1; blunt

Saccharopolyspora erythraea IdeR P39G variant (natural protein)
stoichiometry N [1]: 2

Saccharopolyspora erythraea IdeR Q43A variant (natural protein)
stoichiometry N [2]: 2

Saccharopolyspora erythraea iron-dependent regulator IdeR, wild type (natural protein)
stoichiometry N [3]: 2 | stoichiometry N [4]: 2

B1: Consensus_C1C2-T1T2 (dsDNA)
DNA 1: CGTACTTAAATTAAATTAATTTAAGTACG
DNA 2: CGTACTTAAATTAATTTAATTTAAGTACG
binding result (IdeR WT [5]; label: 5' Cy5 on strand 1): no binding

B2: Minimal_CNTNN (dsDNA)
DNA 1: CGTACGCACGCGATGCTCGCATCCGTACG
DNA 2: CGTACGGATGCGAGCATCGCGTGCGTACG
binding result (IdeR WT [5]; label: 5' Cy5 on strand 1): no binding

B3: C10S1 (dsDNA)
DNA 1: CGTACTTTGGTAAAGCTAACCTAAGTCACC
DNA 2: GGTGACTTAGGTTAGCTTTACCAAAGTACG
Kd (IdeR WT [6]; label: 5' FAM on strand 1): ~116 nM

B4: Cons_long (crystal) (dsDNA)
DNA 1: CGTACTTAGGTTAGGCTAACCTAAGTCACG
DNA 2: CGTGACTTAGGTTAGCCTAACCTAAGTACG
binding result (IdeR P39G [7]): binds | binding result (IdeR WT [8]): binds

B5: Consensus_C2-T2 (dsDNA)
DNA 1: CGTACTTAAGTTAAGTTAACTTAAGTCACG
DNA 2: CGTGACTTAAGTTAACTTAACTTAAGTACG
Kd (IdeR WT [6]; label: 5' FAM on strand 1): ~105 nM

B6: C10S2 (dsDNA)
DNA 1: GATGCTTAGGTTAGCCTACCCGACGCTGA
DNA 2: TCAGCGTCGGGTAGGCTAACCTAAGCATC
Kd (IdeR WT [6]; label: 5' Cy5 on strand 1): ~94 nM

B7: Half site (dsDNA)
DNA 1: CGTACCCGGTTTAGGGCCACCTAAGTACG
DNA 2: CGTACTTAGGTGGCCCTAAACCGGGTACG
Kd (IdeR WT [9]): ~78 nM

B8: Consensus_T3-G3 (dsDNA)
DNA 1: CGTACTTCGGTTCGGCGAACCGAAGTACG
DNA 2: CGTACTTCGGTTCGCCGAACCGAAGTACG
binding result (IdeR WT [5]; label: 5' Cy5 on strand 1): no binding

B9: Consensus_A4A5-S4S5 (dsDNA)
DNA 1: CGTACGCAGGCGAGGCTCGCCTGCGTACG
DNA 2: CGTACGCAGGCGAGCCTCGCCTGCGTACG
Kd (IdeR WT [6]; label: 5' Cy5 on strand 1): ~128 nM

B10: C23S1 (dsDNA)
DNA 1: AGTCATAAAGTTAGGTTCGCCTCACTACT
DNA 2: AGTAGTGAGGCGAACCTAACTTTATGACT
Kd (IdeR WT [9]): ~102 nM

B11: Consensus_Full (dsDNA)
DNA 1: CGTACTTAGGTTAGGCTAACCTAAGTACG
DNA 2: CGTACTTAGGTTAGCCTAACCTAAGTACG
Kd (IdeR Q43A): ~65 nM | Kd (IdeR P39G [10]): ~264 nM | Kd (IdeR WT [6]; label: 5' Cy5 or 5' FAM on strand 1): ~45 nM

B12: Minimal_NCTNN (dsDNA)
DNA 1: CGTACGCAGACGAGACTCGTCTGCGCTACG
DNA 2: CGTAGCGCAGACGAGTCTCGTCTGCGTACG
binding result (IdeR WT [5]; label: 5' FAM on strand 1): no binding

B13: Consensus_C1-T1 (dsDNA)
DNA 1: CGTACTTAGATTAGACTAATCTAAGTACG
DNA 2: CGTACTTAGATTAGTCTAATCTAAGTACG
Kd (IdeR WT [6]; label: 5' Cy5 on strand 1): ~70 nM
